Results published in paper doi:10.1101/2022.06.24.497451.

Target: SMC3CC/RAD21N complex (human)

Substance | loss of ATPase activity compared to the WT complex when SMC3CC/RAD21N was added [%]
SMC1ACC-R57A/RAD21C complex | 10
SMC1ACC-Δ58-62/RAD21C complex | 10
